{"source": "paper PMC7671560", "about": "“SAXS studies of X-ray induced disulfide bond damage: Engineering high-resolution insight from a low-resolution technique” (PLoS ONE, 2020)", "proteins": {"B1": {"name": "endoHCYS (FRAGCYS-endoH-His6; Endoglycosidase-H with a 7 aa cysteine-containing fragment on its N-terminus) (enzyme)", "chain": "SLSTGCYVKQGPTSVAYVEVNNNSMLNVGKYTLADGGGNAFDVAVIFAANINYDTGTKTAYLHFNENVQRVLDNAVTQIRPLQQQGIKVLLSVLGNHQGAGFANFPSQQAASAFAKQLSDAVAKYGLDGVDFDDEYAEYGNNGTAQPNDSSFVHLVTALRANMPDKIISLYNIGPAASRLSYGGVDVSDKFDYAWNPYYGTWQVPGIALPKAQLSPAAVEIGRTSRSTVADLARRTVDEGYGVYLTYNLDGGDRTADVSAFTRELYGSEAVRTP", "notes": "7 aa fragment with a single free cysteine ('FRAGCYS') attached to the flexible N-terminus of endoH; Endoglycosidase-H (endoH), P04067, aa 47-313; has no native cysteines; The chain is written once as the protomer; two protomers join through an intermolecular disulfide between the cysteines of FRAGCYS (about 75% dimer, 25% monomer in the preparation); The structure's own numbering has Val-8 as the …"}}, "biological_target": "the molecule itself", "experiment": "SEC; Superdex 200 10/300 in 20 mM Tris-HCl pH 7.5, 50 mM NaCl, 5 mM EDTA; 100 uL at about 5 mg/ml injected; elution times compared to a standard curve; monomer to disulfide-linked dimer"}
{"protein": "B1", "values": [{"measurement": "stoichiometry N", "result": 2}]}
